Assay results taken from US20030044809A1, “Nucleic acid binding of multi-zinc finger transcription factors” (published 2003).

B1: FLAG-tagged SIP1 (other, mouse, UniProt Q9R0G7 1-1214, looked up)
chain: MKQPIMADGPRCKRRKQANPRRKNVVNYDNVVDAGSETDEEDKLHIAEDDSLANPLDQDTSPASMPNHESSPHMSQGLLPREEEEEELRESVVEHSWHSGEILQASVAGPEEMKEDYDAMGPEATIQTTINNGTVKNANCTSDFEEYFAKRKLEERDGHAVSIEEYLQRSDTAIIYPEAPEELSRLGTPEANGQEENDLPPGTPDAFAQLLTCPYCDRGYKRLTSLKEHIKYRHEKNEENFSCPLCSYTFAYRTQLERHMVTHKPGTDQHQMLTQGAGNRKFKCTECGKAFKYKHHLKEHLRIHSGEKPYECPNCKKRFSHSGSYSSHISSKKCIGLISVNGRMRNNIKTGSSPNSVSSSPTNSAITQLRNKLENGKPLSMSEQTGLLKIKTEPLDFNDYKVLMATHGFSGSSPFMNGGLGATSPLGVHPSAQSPMQHLGVGMEAPLLGFPTMNSNLSEVQKVLQIVDNTVSRQKMDCKTEDISKLKGYHMKDPCSQPEEQGVTSPNIPPVGLPVVSHNGATKSIIDYTLEKVNEAKACLQSLTTDSRRQISNIKKEKLRTLIDLVTDDKMIENHSISTPFSCQFCKESFPGPIPLHQHERYLCKMNEEIKAVLQPHENIVPNKAGVFVDNKALLLSSVLSEKGLTSPINPYKDHMSVLKAYYAMNMEPNSDELLKISIAVGLPQEFVKEWFEQRKVYQYSNSRSPSLERTSKPLAPNSNPTTKDSLLPRSPVKPMDSITSPSIAELHNSVTSCDPPLRLTKSSHFTNIKAVDKLDHSRSNTPSPLNLSSTSSKNSHSSSYTPNSFSSEELQAEPLDLSLPKQMREPKGIIATKNKTKATSINLDHNSVSSSSENSDEPLNLTFIKKEFSNSNNLDNKSNNPVFGMNPFSAKPLYTPLPPQSAFPPATFMPPVQTSIPGLRPYPGLDQMSFLPHMAYTYPTGAATFADMQQRRKYQRKQGFQGDLLDGAQDYMSGLDDMTDSDSCLSRKKIKKTESGMYACDLCDKTFQKSSSLLRHKYEHTGKRPHQCQICKKAFKHKHHLIEHSRLHSGEKPYQCDKCGKRFSHSGSYSQHMNHRYSYCKREAEEREAAEREAREKGHLEPTELLMNRAYLQSITPQGYSDSEERESMPRDGESEKEHEKEGEEGYGKLRRRDGDEEEEEEEEESENKSMDTDPETIRDEEETGDHSMDDSSEDGKMETKSDHEEDNMEDGM
notes: range 1-1214; Produced in COS1 cells from pCDNA3; tested in total cell extract; also called FLAG-tagged SIP1FS; pCDNA3-SIP1 (Flag-tagged); not shown: FLAG tag at the N-terminus
B2: Myc-tagged full size SIP1 (SIP1FS) (other, mouse, UniProt Q9R0G7 1-1214, looked up)
chain: MKQPIMADGPRCKRRKQANPRRKNVVNYDNVVDAGSETDEEDKLHIAEDDSLANPLDQDTSPASMPNHESSPHMSQGLLPREEEEEELRESVVEHSWHSGEILQASVAGPEEMKEDYDAMGPEATIQTTINNGTVKNANCTSDFEEYFAKRKLEERDGHAVSIEEYLQRSDTAIIYPEAPEELSRLGTPEANGQEENDLPPGTPDAFAQLLTCPYCDRGYKRLTSLKEHIKYRHEKNEENFSCPLCSYTFAYRTQLERHMVTHKPGTDQHQMLTQGAGNRKFKCTECGKAFKYKHHLKEHLRIHSGEKPYECPNCKKRFSHSGSYSSHISSKKCIGLISVNGRMRNNIKTGSSPNSVSSSPTNSAITQLRNKLENGKPLSMSEQTGLLKIKTEPLDFNDYKVLMATHGFSGSSPFMNGGLGATSPLGVHPSAQSPMQHLGVGMEAPLLGFPTMNSNLSEVQKVLQIVDNTVSRQKMDCKTEDISKLKGYHMKDPCSQPEEQGVTSPNIPPVGLPVVSHNGATKSIIDYTLEKVNEAKACLQSLTTDSRRQISNIKKEKLRTLIDLVTDDKMIENHSISTPFSCQFCKESFPGPIPLHQHERYLCKMNEEIKAVLQPHENIVPNKAGVFVDNKALLLSSVLSEKGLTSPINPYKDHMSVLKAYYAMNMEPNSDELLKISIAVGLPQEFVKEWFEQRKVYQYSNSRSPSLERTSKPLAPNSNPTTKDSLLPRSPVKPMDSITSPSIAELHNSVTSCDPPLRLTKSSHFTNIKAVDKLDHSRSNTPSPLNLSSTSSKNSHSSSYTPNSFSSEELQAEPLDLSLPKQMREPKGIIATKNKTKATSINLDHNSVSSSSENSDEPLNLTFIKKEFSNSNNLDNKSNNPVFGMNPFSAKPLYTPLPPQSAFPPATFMPPVQTSIPGLRPYPGLDQMSFLPHMAYTYPTGAATFADMQQRRKYQRKQGFQGDLLDGAQDYMSGLDDMTDSDSCLSRKKIKKTESGMYACDLCDKTFQKSSSLLRHKYEHTGKRPHQCQICKKAFKHKHHLIEHSRLHSGEKPYQCDKCGKRFSHSGSYSQHMNHRYSYCKREAEEREAAEREAREKGHLEPTELLMNRAYLQSITPQGYSDSEERESMPRDGESEKEHEKEGEEGYGKLRRRDGDEEEEEEEEESENKSMDTDPETIRDEEETGDHSMDDSSEDGKMETKSDHEEDNMEDGM
notes: range 1-1214; Produced in COS1 cells from pCS3; tested in total cell extract; also called Myc-tagged SIP1; WT SIP1; not shown: (Myc)6 tag of pCS3 at the N-terminus

Key:
[1] = tested on: SIP1 full size in cells (mouse); experiment: cell_activity; conditions: luciferase reporter; derepressed by E-box mutations
[2] = biological target: B2; experiment: EMSA double supershift with anti-Myc and anti-FLAG antibodies, Xbra-WT probe
Experimental: For supershift experiments, the extracts were incubated with anti-Myc (Santa Cruz) or anti-FLAG (Kodak) antibodies. For competition, an excess of unlabeled double-stranded oligonucleotides was added together with the labeled probe. The binding reaction was loaded onto a 4% polyacrylamide gel (acrylamide/bis-acrylamide, 19:1) prepared in 0.5XTBE buffer. Following electrophoresis, gels were dried, and exposed to X-Ray film. All experiments were repeated at least three times.
To address this experimentally, we used a combination of differently tagged SIP1 in supershift experiments in EMSAs. […] The SIP1 complex generated with Myc-tagged SIP1 has a slightly slower migration than the FLAG-tagged complex (the Myc-tag is longer than the FLAG-tag). […] Using an anti-FLAG antibody, only the lower part of the complex corresponding to FLAG-tagged SIP1 is super-shifted, whereas about 50% of the radioactivity remains within the Myc-tagged SIP1 complex. […] Conversely, incubating the extract with an anti-Myc antibody super-shifted only the […] part of the complex corresponding to Myc-tagged SIP1 whereas 50% of the radioactivity is retained within the FLAG-tagged SIP1 complex. […] However, we detected no other super-shifted band corresponding to a potential double super-shift, viz. super-shifted with both anti-Myc- and anti-FLAG-antibodies.

FLAG-tagged SIP1 = biological target: B1; experiment: immunoprecipitation with anti-Myc antibody, detection with anti-FLAG antibody
Experimental: Transfected cells were washed with PBS-O (137 mM NaCl, 2.7 mM KCl, 6.5 mM Na₂HPO₄, 1.5 mM KH₂PO₄), collected in detachment buffer (10 mM Tris pH7.5, 1 mM EDTA, 10% glycerol, with protease inhibitors (Protease inhibitor Cocktail tablets, Boehringer Mannheim)) and pelleted by low spin centrifugation. The cells were then solubilized in 10 mM Tris, pH 7.4, 125 mM NaCl, 1% Triton X-100. For direct electrophoretic analysis, gel sample buffer was added to the cell lysates and the samples were boiled. For other experiments, lysates were first subjected to immunoprecipitation with either anti-Myc or anti-FLAG antibodies. Antibodies were added to aliquots of the cell lysates, which were incubated overnight at 4° C. The antibodies and the bound protein(s) of the cell lysate were coupled as a complex to protein A-Sepharose for 2 hours at 4° C. The immunoprecipitates were washed 4 times in NET buffer (50 mM Tris pH 8.0, 150 mM NaCl, 0.1% NP40, 1 mM EDTA, 0.25% gelatin), resolved by SDS-polyacrylamide (7.5%) gel electrophoresis, and electrophoretically transferred to nitrocellulose membranes. […] Immunoreactive bands were detected with an enhanced chemiluminescence reagent (NEN). […]

Molecule: E-cadherin promoter reporter
activity (% decrease of promoter activity) [1]: 80

Molecule: B1
binding result [2]: no binding

Molecule: B2
binding result (FLAG-tagged SIP1): no binding
